# Entries after “also recorded” stand apart in the source; their conditions may differ.
# B1: GDNF: glial cell line-derived neurotrophic factor, recombinant rat GDNF (protein, UniProt Q07731 78-211, looked up)
# Glial cell line-derived …: SPDKQAAALPRRERNRQAAAASPENSRGKGRRGQRGKNRGCVLTAIHLNVTDLGLGYETKEELIFRYCSGSCEAAETMYDKILKNLSRSRRLTSDKVGQACCRPVAFDDDLSFLDDSLVYHILRKHSAKRCGCI
# B2: Dkk1: Wnt antagonist, recombinant mouse Dickkopf-1 (protein, UniProt O54908 32-272, looked up)
# Dickkopf-related protein 1: TLNSVLINSNAIKNLPPPLGGAGGQPGSAVSVAPGVLYEGGNKYQTLDNYQPYPCAEDEECGSDEYCSSPSRGAAGVGGVQICLACRKRRKRCMRHAMCCPGNYCKNGICMPSDHSHFPRGEIEESIIENLGNDHNAAAGDGYPRRTTLTSKIYHTKGQEGSVCLRSSDCAAGLCCARHFWSKICKPVLKEGQVCTKHKRKGSHGLEIFQRCYCGEGLACRIQKDHHQASNSSRLHTCQRH
# B3: Gdf11: Growth differentiation factor 11, recombinant human Gdf11/Bmp11 (protein, UniProt O95390 299-407, looked up)
# Growth/differentiation factor …: NLGLDCDEHSSESRCCRYPLTVDFEAFGWDWIIAPKRYKANYCSGQCEYMFMQKYPHTHLVQQANPRGSAGPCCTPTKMSPINMLYFNDKQQIIYGKIPGMVVDRCGCS
# Columns and labels:
# [1] = system: differentiating ES cells / ES-MNs; test: Rostro-caudal patterning of differentiating ES cells (Hox / positional marker immunostaining); assay type: cell-based, mouse; details: for Rostro-caudal positional marker expression / segmental identity: EBs supplemented on Day 3, markers examined two to four days later; for Rostro-caudal identity of MNs after FGF2 (Hoxd9): 100 ng/ml on day 3
# Method: (§1) Differentiation of cervical level motor neurons from mouse ES cells was performed as previously described (Wichterle et al., 2002). For differentiation of caudal brachial level MNs from ES cells, ES cells were grown in ES cell medium for two days, dissociated and plated into non-adherent tissue culture dishes using ADFNK medium at a density of 20,000 cells/ml. Medium is changed each day but not on Day 3 and Day 4 of differentiation (three and four days after dissociation of ES cells and plating into differentiation medium, respectively). Addition of any factors to differentiating embryonic bodies (EBs) was performed on Day 3. These included: 1 μg/ml Dickopf-1 Dkk1 (R&D Systems), FGF Receptor Inhibitor (PD173074, 100 nM final concentration), FGFb (Recombinant Human, FTF-basic, 120-17, PeproTech), rhGdf11 (R&D Systems, Cat#1958-GD). GDNF (10 ng/ml, R&D Systems) was supplemented on Day 5 of differentiation in selected cultures.
# (§2) For immunocytochemical analysis, embryonic bodies (EBs) were dissociated using 0.05% Trypsin-EDTA on Day 6 and plated at low densities on laminin coated coverslips using ADFNB medium supplemented with 10 ng/ml Glial cell-derived neurotrophic factor (GDNF). For quantification of MN subtypes, EBs were collected on Day 6 and dissociated using 0.05 Trypsin-EDTA. Dissociated cells were plated on laminin coated coverslips using ADFNB medium (DMEM/F12, Neurobasal, 1 ml B27 50× supplement and optional 5 ng/ml of GDNF to enhance survival of MN cultures) and fixed with 4% PFA one day later.
# (§3) Immunocytochemistry on ES cell-derived MNs and EBs was performed as previously described (Wichterle et al., 2002). Antibodies against the following proteins were used in the analysis during this study: Otx2, Hoxa5, Hoxc8, Hoxc6, Hoxc9, Hoxd9, Hoxd10, Foxp1, Lhx3, Pea3, Scip, NeuN, dsRed, NF.
# For each experiment, 10 distinct randomized image fields were taken using a confocal microscope LSM Zeiss Meta 510. Expression of all markers used for quantifications was gated to GFP positive cells, ES cell-derived spinal MNs. Images were analyzed for the expression of the above stated markers in the context of the ES cell-derived caudal brachial MNs. Each quantification is the result of at least three independent experiments (three independent differentiation experiments).
# All experiments were performed with HBG3 ES cell line harboring Hb9-GFP transgene (Wichterle et al., 2002) and key experiments were confirmed using a control MM13 ES cell line. Differentiation of HBG3 ES cell line under RA/Hh conditions into rostral cervical MNs was performed as previously described (Wichterle et al., 2002; Wichterle and Peljto, 2008). For production of cervical MNs, ES cells were plated at 50,000 cells/ml in ADFNK differentiation medium [Advanced D-MEM/F-12 (Invitrogen): Neurobasal medium (Invitrogen) (1:1), 10% Knockout Serum Replacement (Invitrogen), […] L-Glutamine (Invitrogen), 0.1 mM β-mercaptoethanol (Sigma), and Pen/Strep (Invitrogen)]. Medium was completely changed on days 1, 2 and of differentiation. EBs were split 1:4 on day 2 of differentiation and the medium was supplemented with 1 μM all-trans retinoic acid (RA, Sigma) and Hh agonist (0.5 μM SAG, Calbiochem or 1 μM HhAg1.3, (Frank-Kamenetsky et al., 2002)). To generate caudal brachial level MNs from ES cells under FGF/Hh conditions, ES cells were plated into non-adherent tissue culture dishes in ADFNK medium (˜20,000 cells/ml). Embryoid bodies (EBs) were split 1:4 on day 2 of differentiation and the medium was changed on days 1, 2 and 5. Selected cultures were supplemented with the following reagents: 10 nM-1 μM RA, 10 nM-1 μM Hh Agonist, 1 μg/ml recombinant mouse Dickkopf-1 (R&D Systems), 50-100 nM FGF/VEGF Receptor Tyrosine Kinase Inhibitor (PD173074, Calbiochem) (Mohammadi et al., 1998), 100-625 ng/ml recombinant human bFGF (PeproTech), 20 ng/ml recombinant human Gdf11/Bmp11 (R&D Systems), 10 ng/ml recombinant rat GDNF (R&D Systems). […]
# [2] = system: ES-MNs; test: Motor pool identity of ES-MNs (Pea3, Scip) in response to GDNF; assay type: cell-based, mouse
# Method: as §1, §2, §3
# All experiments were performed with HBG3 ES cell line harboring Hb9-GFP transgene (Wichterle et al., 2002) and key experiments were confirmed using a control MM13 ES cell line. Differentiation of HBG3 ES cell line under RA/Hh conditions into rostral cervical MNs was performed as previously described (Wichterle et al., 2002; Wichterle and Peljto, 2008). For production of cervical MNs, ES cells were plated at 50,000 cells/ml in ADFNK differentiation medium [Advanced D-MEM/F-12 (Invitrogen): Neurobasal medium (Invitrogen) (1:1), 10% Knockout Serum Replacement (Invitrogen), […] L-Glutamine (Invitrogen), 0.1 mM β-mercaptoethanol (Sigma), and Pen/Strep (Invitrogen)]. Medium was completely changed on days 1, 2 and of differentiation. EBs were split 1:4 on day 2 of differentiation and the medium was supplemented with 1 μM all-trans retinoic acid (RA, Sigma) and Hh agonist (0.5 μM SAG, Calbiochem or 1 μM HhAg1.3, (Frank-Kamenetsky et al., 2002)). To generate caudal brachial level MNs from ES cells under FGF/Hh conditions, ES cells were plated into non-adherent tissue culture dishes in ADFNK medium (˜20,000 cells/ml). Embryoid bodies (EBs) were split 1:4 on day 2 of differentiation and the medium was changed on days 1, 2 and 5. Selected cultures were supplemented with the following reagents: 10 nM-1 μM RA, 10 nM-1 μM Hh Agonist, 1 μg/ml recombinant mouse Dickkopf-1 (R&D Systems), 50-100 nM FGF/VEGF Receptor Tyrosine Kinase Inhibitor (PD173074, Calbiochem) (Mohammadi et al., 1998), 100-625 ng/ml recombinant human bFGF (PeproTech), 20 ng/ml recombinant human Gdf11/Bmp11 (R&D Systems), 10 ng/ml recombinant rat GDNF (R&D Systems).
# For immunocytochemical analysis, EBs were dissociated using 0.05% Trypsin-EDTA (Invitrogen) on day 6 and plated at low density on coverslips (Carolina Biological) first coated with 0.001% solution of poly-1-ornithine (Sigma; diluted in water) and then with mouse laminin ([…] final concentration in PBS; Invitrogen). Cultures were plated and maintained using ADFNB culture medium [Advanced D-MEM/F12:Neurobasal (1:1), 1× B27 supplement (Invitrogen), […] L-Glutamine, and 1× Pen/Strep]. […]
# [3] = Example 1, 1 μg/ml on Day 3 of differentiation
molecule,measurement,setting,value
"CCN(CC)CCCCNc1ncc2cc(-c3cc(OC)cc(OC)c3)c(NC(=O)NC(C)(C)C)nc2n1 [PD173074, reference compound]",Hoxc8+ cells,"[1]; Example 1, 100 nM on Day 3 of differentiation",complete loss of Hoxc8+ cells
same,Specification of Hoxc8+ ES-MNs,"[1]; Example 2, 50 nM on day 3 of differentiation (FIG. 22H)",generation of ES-MNs that expressed Hoxa5 but lacked Hoxc8 expression; also recorded: selectively prevented specification of caudal brachial Hoxc8^+ ES-MNs
"FGF-2: basic fibroblast growth factor, recombinant human bFGF",Rostro-caudal positional marker expression / segmental identity,[1]; Example 1,induced predominantly thoracic identity marked by Hoxd9 expression
same,Induction of brachial or thoracic markers by FGF-2,"[1]; Example 1, in the presence of RA",not sufficient to induce expression of brachial or thoracic markers
same,Rostro-caudal identity of MNs after FGF2 (Hoxd9),"[1]; Example 2, stained day 7, listed as FGF",significant increase in Hoxd9 expressing cells
same,Rostro-caudal identity of MNs after FGF2 (Hoxd9),"[1]; Example 2, stained day 7, listed as FGF2",Hoxd9^+ thoracic; also recorded: increase in the number of Hoxd9^+ MNs
same,Specification of Hoxc8+ ES-MNs by FGF2 added to RA/Hh,[1]; up to 625 ng/ml FGF2 added to 1 μM RA/Hh differentiation condition,did not result in the specification of Hoxc8^+ ES-MNs
B1,Pea3+ ES-MNs expressing Isl1,[2]; GDNF 10 ng/ml on day 5,~90%
same,Pea3+ ES-MNs expressing Lhx1,[2]; GDNF 10 ng/ml on day 5,~10%
same,"Percentage of Scip+ MNs, presence versus absence of GDNF",[2]; brachial MNs,not significantly different
same,LMC (FoxP1+) MNs expressing Pea3,"[2]; caudal brachial ES-MNs, 10 ng/ml GDNF on day 5",~20%
same,Pea3 expression in cervical (RA/Hh differentiated) MNs treated with GDNF,[2]; cervical ES-MNs,no Pea3 expressing MNs were detected; also recorded: not sufficient to induce Pea3 expression; also recorded: do not acquire expression of Pea3
same,Scip+ FoxP1+ ES-MNs,[2]; presence or absence of GDNF,~10%
B2,Neural specification (NeuN),[1]; [3],did not interfere with neural specification
same,Otx2 expression (rostral neural identity),[1]; [3],induction of Otx2 expression
same,"Spinal identity (Hoxa5, Hoxc8, Hoxd9, Hoxd10 expression)",[1]; [3],lost their spinal identity
same,Otx2+ forebrain/midbrain neural cells,"[1]; Example 2, 1 μg/ml on day 2, Otx2 on day 5",appearance of Otx2^+ forebrain/midbrain neural cells
same,Specification of spinal cells (Hox and MN markers),"[1]; Example 2, 1 μg/ml on day 2 of differentiation",lacked spinal character; also recorded: prevented specification of spinal cells
B3,Rostro-caudal positional marker expression / segmental identity,[1]; Example 1,emergence of even more caudal Hoxd10 positive lumbar nerve cells
same,Rostro-caudal identity of MNs after Gdf11 (Hoxd10),"[1]; Example 2, 20 ng/ml on day 3, stained day 7",Hoxd10^+ lumbar; also recorded: specification of MNs expressing Hoxd10; also recorded: significant increase in Hoxd10 expressing ES-MNs

# Reference: patent US8969081B2, “Caudal motor neuron derived from embryonic stem cells under conditions essentially free of any retinoid” (The Trustees of Columbia University in the City of New York, priority 2008, dated 2015)
